# Data from patent US20240342207, “MODIFIED NUCLEIC ACID COMPOSITIONS AND ASSOCIATED METHODS FOR TREATMENT OF PHENYLKETONURIA” (BOARD OF REGENTS, THE UNIVERSITY OF TEXAS SYSTEM, published 2024).
# T1: PAH (phenylalanine hydroxylase), wild type (Homo sapiens, UniProt P00439 P00439:1-452)
# T1 sequence: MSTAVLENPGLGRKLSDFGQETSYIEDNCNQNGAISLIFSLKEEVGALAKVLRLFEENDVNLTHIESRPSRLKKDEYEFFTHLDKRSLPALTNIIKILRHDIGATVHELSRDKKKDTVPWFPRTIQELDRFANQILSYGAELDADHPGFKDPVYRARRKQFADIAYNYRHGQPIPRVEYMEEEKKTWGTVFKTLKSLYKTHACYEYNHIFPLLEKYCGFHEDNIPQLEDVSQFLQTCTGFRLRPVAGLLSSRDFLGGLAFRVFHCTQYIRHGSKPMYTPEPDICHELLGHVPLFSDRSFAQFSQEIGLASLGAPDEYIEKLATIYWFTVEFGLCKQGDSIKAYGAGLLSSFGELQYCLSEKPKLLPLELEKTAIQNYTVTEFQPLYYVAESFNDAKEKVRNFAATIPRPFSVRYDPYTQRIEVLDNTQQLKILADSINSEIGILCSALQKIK
# Columns and labels:
# [1] = target: T1, PAH (phenylalanine hydroxylase), wild …; test: affinity similar to full-length HULC; conditions: tags: His-tag, pET-DEST42, E. coli BL21-CodonPlus (DE3)-RIPL, cobalt resin
# [2] = target: T1, PAH (phenylalanine hydroxylase), wild …; test: EMSA; 5 mM MgCl2, 100 mM KCl, 30 C; conditions: tags: His-tag, pET-DEST42, E. coli BL21-CodonPlus (DE3)-RIPL, cobalt resin, label: 32P
# Method: RNA Electrophoretic Mobility Shift Assay (EMSA). The gel mobility shift assay was performed as previously described (42). Briefly, 500 ng recombinant His-tagged wild-type PAH or mutants were incubated with 0.035 μmol labeled probe in a RNA-protein binding buffer [(50 mM Tris-HCl 7.9, 10% glycerol, 100 mM KCl, 5 mM MgCl₂, 10 mM (3-ME, 0.1% NP40] for 30 min at 30° C. For cold RNA competition, 0.035 μmol radiolabeled RNA probes were first mixed with 7 μmol cold RNA competitors and then subjected to the gel shift assay.
# [3] = target: T1, PAH (phenylalanine hydroxylase), wild …; test: mutant mimic abolished interaction; conditions: tags: His-tag, pET-DEST42, E. coli BL21-CodonPlus (DE3)-RIPL, cobalt resin
Binder,binding result ([2]; stem-loop),binding result [2],other results
"CAAAATGCATATGTATCTTTG (XNA, 2'-F at all nucleotides) [HULC mimic, 2'-F]",,,binding result [1]: binds
GGUGAGCUGCGUAUAGCUCGUC (ssRNA) [Pair 467-488 WT EMSA probe],binds,,
CCAAAAUGCAUAUGUAUCUUUGG (ssRNA) [HULC 180-202 WT EMSA probe],binds,,
GGUGAGCUGCGUGUAGCUCGUC (ssRNA) [Pair 467-488 mutant EMSA probe],,no binding,
CCAAAAUGCAUGUGUAUCUUUGG (ssRNA) [HULC 180-202 mutant EMSA probe],,no binding,
"CAAAATGCATGTGTATCTTTG (XNA, 2'-F at all nucleotides) [HULC mutant mimic, 2'-F (A191G)]",,,binding result [3]: no binding
